# Target: ectodomain of SARS-CoV-2 S protein (a.a. 1-1208 (SARS-CoV-2) (UniProt P0DTC2))
# Experiment: SPR
row,Substance,Kd [µM]
1,CR3022 IgG (antibody),0.00021
2,CR3022 scFv VLVH,0.0278
3,CR3022 Fab,0.0454
4,CR3022 scFv VHVL,0.0201

# Reference: paper PMC8310559
